Source: patent US20160376333A1 (University of Washington, published 2016)

B1: Epstein-Barr virus BHRF1 a.a. 1-161 with C-terminal avi-6his tag (other)
chain: AYSTREILLALCIRDSRVHGNGTLHPVLELAARETPLRLSPEDTVVLRYHVLLEEIIERNSETFTETWNRFITHTEHVDLDFNSVFLEIFHRGDPSLGRALAWMAWCMHACRTLCCNQSTPYYVVDLSVRGMLEASEGLDGWIHQQGGWSTLIEDNIPGSGLNDIFEAQKIEWHEGSHHHHHH
notes: also called EBV BHRF1; BHRF1-biotin
B2: human Bcl-w a.a. 1-182 with C-terminal avi-6his tag (other)
chain: MATPASAPDTRALVADFVGYKLRQKGYVCGAGPGEGPAADPLHQAMRAAGDEFETRFRRTFSDLAAQLHVTPGSAQQRFTQVSDELFQGGPNWGRLVAFFVFGAALCAESVNKEMEPLVGQVQEWMVAYLETQLADWIHSSGGWAEFTALYGDGALEEARRLREGNWASVRTVLTGAVALGAGLNDIFEAQKIEWHEGSHHHHHH
notes: range 1-182; also called BCL2L2
B3: human Mcl-1 a.a. 172-327 with C-terminal avi-6his tag (other)
chain: GSDELYRQSLEIISRYLREQATGAKDTKPMGRSGATSRKALETLRRVGDGVQRNHETAFQGMLRKLDIKNEDDVKSLSRVMIHVFSDGVTNWGRIVTLISFGAFVAKHLKTINQESCIEPLAESITDVLVRTKRDWLVKQRGWDGFVEFFHVEDLEGGGLNDIFEAQKIEWHEGSHHHHHH
B4: human Bfl-1 a.a. 1-153 (C4S) with C-terminal avi-6his tag (other)
chain: TDSEFGYIYRLAQDYLQCVLQIPQPGSGPSKTSRVLQNVAFSVQKEVEKNLKSCLDNVNVVSVDTARTLFNQVMEKEFEDGIINWGRIVTIFAFEGILIKKLLRQQIAPDVDTYKEISYFVAEFIMNNTGEWIRQNGGWENGFVKKFEPKSGGLNDIFEAQKIEWHEGSHHHHHH
notes: also called A1/Bfl-1

What was measured:
[1] = biological target: human Bim-BH3 (a.a. 141-166) displayed on yeast (human, UniProt O43521 141-166); experiment: yeast surface display titration (apparent KD)
[2] = biological target: T1, Bim-BH3 motif fused to the C-terminus of maltose-binding protein (MBP) (human, UniProt O43521 141-166); experiment: BLI, biotinylated target on streptavidin sensor, MBP-Bim-BH3 in solution
T1 construct: domain: Bim-BH3 motif; also called MBP-Bim-BH3

[3] = biological target: B4; experiment: ratio of the KD of the next tightest BCL2 protein to the KD of the target, BLI
[4] = biological target: T2, human Bcl-2 a.a. 1-207 with C-terminal avi-6his tag (human, UniProt P10415 2-207); experiment: BLI, biotinylated target on streptavidin sensor, range of analyte concentrations
Target sequence in this assay (P10415 other isoform, or with tags, fused parts or gaps limits assumed): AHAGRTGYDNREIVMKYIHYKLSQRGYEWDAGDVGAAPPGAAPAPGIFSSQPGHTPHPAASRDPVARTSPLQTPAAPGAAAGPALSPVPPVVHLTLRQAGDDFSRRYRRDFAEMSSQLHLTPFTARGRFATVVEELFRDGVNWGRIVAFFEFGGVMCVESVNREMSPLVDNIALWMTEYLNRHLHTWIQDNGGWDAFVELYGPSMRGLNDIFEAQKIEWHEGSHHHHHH

[5] = biological target: B2; experiment: as above
[6] = biological target: B3; experiment: as above
[7] = biological target: B4; experiment: as above
[8] = biological target: T3, human Bcl-XL a.a. 1-205 with C-terminal avi-6his tag (human, UniProt Q07817 2-206); experiment: as above
T3 construct: also called BCL2L1

[9] = biological target: T4, human Bcl-B a.a. 11-175 with C-terminal avi-6his tag (human); experiment: as above
T4 construct: also called BCL2L10
T4 chain: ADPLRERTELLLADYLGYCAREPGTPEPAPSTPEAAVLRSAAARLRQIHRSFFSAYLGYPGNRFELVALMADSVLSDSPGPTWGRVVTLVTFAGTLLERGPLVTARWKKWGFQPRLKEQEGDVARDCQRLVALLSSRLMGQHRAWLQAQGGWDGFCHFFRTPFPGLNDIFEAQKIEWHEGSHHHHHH

[10] = biological target: B3; experiment: yeast surface display titration (apparent KD)
[11] = biological target: T4, human Bcl-B a.a. 11-175 with C-terminal …; experiment: ratio of the KD of the next tightest BCL2 protein to the KD of the target, BLI
[12] = biological target: T2, human Bcl-2 a.a. 1-207 with C-terminal …; experiment: initial BLI screening (column 'Binds target?')
[13] = biological target: B1; experiment: yeast display library, FACS sort at 100 nM BHRF1, deep sequencing
[14] = biological target: B1; experiment: yeast display library, FACS sort at 400 nM BHRF1, deep sequencing
[15] = biological target: B1; experiment: yeast surface display; BHRF1 titrated on clonal yeast showing the design, fluorescence by flow cytometry (apparent KD)
[16] = biological target: B3; experiment: BLI at a single analyte concentration (50 nM, 600 s association, then buffer); biotinylated BCL2 protein on a streptavidin sensor

T3 sequence (Q07817 other isoform, or with tags, fused parts or gaps limits assumed): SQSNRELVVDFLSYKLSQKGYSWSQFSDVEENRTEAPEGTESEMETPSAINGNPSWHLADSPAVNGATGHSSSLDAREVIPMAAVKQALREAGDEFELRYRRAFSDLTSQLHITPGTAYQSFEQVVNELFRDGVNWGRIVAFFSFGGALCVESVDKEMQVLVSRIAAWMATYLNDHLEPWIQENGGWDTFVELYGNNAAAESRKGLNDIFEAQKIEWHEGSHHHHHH
T1 sequence (O43521 141-166 limits assumed): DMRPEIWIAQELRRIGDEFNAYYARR

## B1
[1]
  Kd: 12 nM
[2]
  Kd: 7 nM

## B2
[1]
  Kd: 2.1 nM
[2]
  Kd: 20 nM

## B3
[1]
  Kd: 0.6 nM
[2]
  Kd: 0.17 nM

## B4
[1]
  Kd: 2.1 nM
[2]
  Kd: 0.61 nM

B5: F-ECM04 (designed binder)
chain: ADPKKVLDKAKDQAENRVRELKQKLEELYKEARKLDLTQEMRKKLEVAALGAVLAAHGDILNAIMQAKEEADKLKKAGLVNSQQLDELKRRLEELKEEALRKASDYGKEFHLKRRYG
[3]
  Specificity: 91 fold
[4]
  Kd: 100 nM
[5]
  Kd: 3800 nM
[6]
  Kd: 255 nM
[7]
  Kd: 1.1 nM
[8]
  Kd: 540 nM
[9]
  Kd: 4000 nM

B6: BbpD04 (designed binder)
chain: ADWKKVLDKAKDIAENRVREIKQKLEEFYKKAMKLDLTQEMRRKLMLEWIAAMLMAIGDIFNAIEQAKQEADKLKKAGQVNSQLLDELKRRLEELKEEASRKCHDYGREFQLKLEY
[10]
  Kd: 17 nM

B7: FINDI (designed binder)
chain: ADPKKVLDKAKDQAENRVRELKQKLEELYKEARKLDLTQEKRKKLEVATLGAVLAAHGDILNAIMQAKEEADKLKKAGLVNSQQLDELKRRLEELKEEALRKASDYGNEFHLKRRY
notes: also called αBFL1
[3]
  Specificity: 350 fold
[4]
  Kd: 321 nM
[5]
  Kd: 7400 nM
[6]
  Kd: 1700 nM
[7]
  Kd: 0.91 nM
[8]
  Kd: 900 nM
[9]
  Kd: 31000 nM

B8: 10-CDP01 (designed binder)
chain: ADPKKVLDKAKDQAENRVRELKQELERLYKEARKLDLTQEMRRKLEWRYIAAMLKAIGDILNAIAQAENEADKLKKAGLVNSQQLDELRRRLEELAKEAARKAHDYGREFQLKLEY
notes: also called B-CDP01
[11]
  Specificity: 0.05 fold
[4]
  Kd: 14 nM
[5]
  Kd: 900 nM
[6]
  Kd: 0.47 nM
[7]
  Kd: 250 nM
[8]
  Kd: 16 nM
[9]
  apparent Kd (pooled screen): 9 nM

B9: 2-CDP01 (designed binder)
chain: ADPKKVLDKAKDQAENVVRKLKQELEELYKEARKLDLTQDMREKIKLRAEAAELQAIGDIFQAILQAKMEAKKLYDAGLVNSQQLDELKRRLEELAKEAEDRAAKLGKEFLQKLEYG
[12]
  binding result: binds

B10: 10-ECM01 (designed binder)
chain: ADPKKILDKAKDQVENRVRELKQELERLYKEARKLDLTQEMRRKLHVRYIAAMLKAIAAILNAIAQAENEADKLKKAGLVNSQQLDELRRRLEELTEEAAQKAHDYGREFQLKLEYG
[11]
  Specificity: 31 fold
[4]
  Kd: 12500 nM
[5]
  Kd: 19000 nM
[6]
  Kd: 3650 nM
[7]
  Kd: 2380 nM
[8]
  Kd: 7800 nM
[9]
  Kd: 77 nM

B11: 2-CDP02 (designed binder)
chain: ADPKKVLDKAKDRAENAVRELKQKLEELYKEARKLDLTQDMRNKLIMKAIAAELRAIGDIFQAILEAKAEAKKLLDAGLVNSQQFDELKRRLEELEEEAAERARKLGDEFRQKLEYG
[12]
  binding result: binds

B12: 2-CDP07 (designed binder)
chain: ADPKKVLDKAKDDAENRVRELKQKLEELYKEARKLDLTQEERDELKLKAIAASLQASGDIYNAILRALEEARKLKKAGLVNSQQLDELKRRLEELAEEAQRKANKLGDEFRLKLEY
[12]
  binding result: binds

B13: 2-CDP03 (designed binder)
chain: ADPKKVLDKAKDQAENRVRELKQKLEELYKEARKLDLTQEMRRELKERALAARLQAVGDIFYAILQAKSEADKLKKAGLVNSQQLDELKRRLEELAEEAQRKARDYGIEFALKLEY
[12]
  binding result: binds

B14: 10-INDI (designed binder)
chain: ADPKKILDKAKDQVENRVRELKQELERLYKEARKLDLTQEMRRKLHVRYIEAMLKAIAAIMNAIAQAENEADKLKKAGLVNSQQLDELRRRLEELTEEAAQKAHDYGRELQLKLEY
notes: also called αBCLB
[11]
  Specificity: 1010 fold

B15: Index 04 (designed binder)
chain: GLLAEEGREQAEERLREARKKAEKAGDKIKDLAKYGQDSDDEKKKFMLKWIAAQLMVIGDMFNHAMEALWELLRRLKNNKISWDAFLKAKEEIEREEKEAARDSREKGREAAKMIDQG
[13]
  Log2 enrichment ratio: 2.11 log2
[14]
  Log2 enrichment ratio: 1.96 log2
[15]
  Kd: 44 nM

B16: M-CDP01 (designed binder)
chain: ADPKKVLDKAKDQAENRVRELKQELEELYKKARKLDLTQEERRKLEEEAIAALLRAIGDIYNAIQQALNEADKLKKAGLVNSQQLDELKRRLEELKKEASKKARDYGLEFFEKLDY
[16]
  binding result: binds

B17: M-CDP05 (designed binder)
chain: ADPKKVLDKAKDQAENRVRELKQKLEELYKEARKLDLTQEERHRLETKALSALLAAIGDILDAIMQALQEAAKLKKAGLVNSQQLDELKRRLEELRKEASRKARDYGREFWLKLDY
[16]
  binding result: binds
